Data as given in article PMC9482650, “Quantitative fragmentomics allow affinity mapping of interactomes” (Nature Communications, 2022).

T1: LRRC7, Q96NW7
T1 sequence (Q96NW7 1440-1537, limits assumed, looked up): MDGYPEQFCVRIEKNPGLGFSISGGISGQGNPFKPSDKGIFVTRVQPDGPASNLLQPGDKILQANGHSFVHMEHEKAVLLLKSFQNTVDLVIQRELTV

T2: MPP6, Q9NZW5
T2 sequence (Q9NZW5 125-219, limits assumed, looked up): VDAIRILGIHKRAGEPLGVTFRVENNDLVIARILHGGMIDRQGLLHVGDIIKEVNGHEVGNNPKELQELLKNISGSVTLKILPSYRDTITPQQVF

T3: NHERF3_1, Q5T2W1
T3 sequence (Q5T2W1 4-100, limits assumed, looked up): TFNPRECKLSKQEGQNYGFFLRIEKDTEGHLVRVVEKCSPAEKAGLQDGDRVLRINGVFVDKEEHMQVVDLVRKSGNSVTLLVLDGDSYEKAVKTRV

T4: NHERF3_3, Q5T2W1
T4 sequence (Q5T2W1 238-333, limits assumed, looked up): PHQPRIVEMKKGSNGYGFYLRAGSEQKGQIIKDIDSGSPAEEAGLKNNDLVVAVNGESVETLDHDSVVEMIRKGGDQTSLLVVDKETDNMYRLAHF

T5: PARD3B_1, Q8TEW8
T5 sequence (Q8TEW8 196-299, limits assumed, looked up): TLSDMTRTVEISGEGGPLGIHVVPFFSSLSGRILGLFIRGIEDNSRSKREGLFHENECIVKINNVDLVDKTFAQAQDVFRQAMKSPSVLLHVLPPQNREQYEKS

T6: SNTG1, Q9NSN8
T6 sequence (Q9NSN8 52-150, limits assumed, looked up): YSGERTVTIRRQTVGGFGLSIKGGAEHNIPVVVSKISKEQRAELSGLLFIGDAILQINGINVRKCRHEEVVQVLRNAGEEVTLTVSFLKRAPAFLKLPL

T7: SNTG2, Q9NY99
T7 sequence (Q9NY99 68-166, limits assumed, looked up): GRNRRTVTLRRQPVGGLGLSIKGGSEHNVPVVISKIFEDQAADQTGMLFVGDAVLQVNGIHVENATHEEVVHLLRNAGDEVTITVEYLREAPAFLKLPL

T8: TIAM2, Q8IVF5
T8 sequence (Q8IVF5 885-986, limits assumed, looked up): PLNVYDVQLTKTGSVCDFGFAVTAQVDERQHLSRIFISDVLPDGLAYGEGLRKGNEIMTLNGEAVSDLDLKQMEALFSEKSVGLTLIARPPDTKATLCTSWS


biological target: ARHGEF12, Q9NZN5-2; assay: holdup assay; design: key: below the threshold = too weak to quantify, mostly under pKd 3.1 to 4; conditions: plain residues with an end cap or a label only (N-terminal biotin on a linker: ado-ado)
Sequence (Q9NZN5 other isoform, or with tags, fused parts or gaps): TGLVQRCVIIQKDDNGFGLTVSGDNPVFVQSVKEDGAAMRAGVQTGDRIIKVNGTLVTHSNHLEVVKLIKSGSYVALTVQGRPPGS

pKd	Binder
4.65	SAAKVLTSMC [GHRHR, Q02643]
4.27	RKPKPSSSCC [RAB9A, P51151]

biological target: DLG1_2, Q12959; assay: holdup assay; design: key: below the threshold = too weak to quantify, mostly under pKd 3.1 to 4; conditions: plain residues with an end cap or a label only (N-terminal biotin on a linker: ado-ado)
Sequence (Q12959 314-412): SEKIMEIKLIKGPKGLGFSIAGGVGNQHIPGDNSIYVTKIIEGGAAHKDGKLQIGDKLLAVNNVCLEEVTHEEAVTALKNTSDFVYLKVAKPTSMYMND

pKd	Binder
below the threshold	SAAKVLTSMC [GHRHR, Q02643]
below the threshold	RKPKPSSSCC [RAB9A, P51151]

biological target: DLG1_3, Q12959; assay: holdup assay; design: key: below the threshold = too weak to quantify, mostly under pKd 3.1 to 4; conditions: plain residues with an end cap or a label only (N-terminal biotin on a linker: ado-ado)
Sequence (Q12959 457-571): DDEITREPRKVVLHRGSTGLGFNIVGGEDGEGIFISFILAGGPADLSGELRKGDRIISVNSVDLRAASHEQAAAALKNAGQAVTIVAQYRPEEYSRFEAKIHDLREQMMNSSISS

pKd	Binder
3.6	SAAKVLTSMC [GHRHR, Q02643]
below the threshold	RKPKPSSSCC [RAB9A, P51151]

biological target: DLG4_2, P78352; assay: holdup assay; design: key: below the threshold = too weak to quantify, mostly under pKd 3.1 to 4; conditions: plain residues with an end cap or a label only (N-terminal biotin on a linker: ado-ado)
Sequence (P78352 155-259): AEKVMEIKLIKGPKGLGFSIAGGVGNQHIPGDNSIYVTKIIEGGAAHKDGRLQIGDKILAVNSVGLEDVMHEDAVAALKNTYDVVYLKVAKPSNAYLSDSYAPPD

pKd	Binder
3.63	SAAKVLTSMC [GHRHR, Q02643]
below the threshold	RKPKPSSSCC [RAB9A, P51151]

biological target: DLG4_3, P78352; assay: holdup assay; design: key: below the threshold = too weak to quantify, mostly under pKd 3.1 to 4; conditions: plain residues with an end cap or a label only (N-terminal biotin on a linker: ado-ado)
Sequence (P78352 306-403): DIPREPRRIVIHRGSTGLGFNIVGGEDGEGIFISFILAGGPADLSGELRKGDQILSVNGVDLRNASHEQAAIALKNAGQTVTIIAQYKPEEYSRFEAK

pKd	Binder
below the threshold	SAAKVLTSMC [GHRHR, Q02643]
below the threshold	RKPKPSSSCC [RAB9A, P51151]

biological target: GRASP, Q7Z6J2; assay: holdup assay; design: key: below the threshold = too weak to quantify, mostly under pKd 3.1 to 4; conditions: plain residues with an end cap or a label only (N-terminal biotin on a linker: ado-ado)
Sequence (Q7Z6J2 96-193): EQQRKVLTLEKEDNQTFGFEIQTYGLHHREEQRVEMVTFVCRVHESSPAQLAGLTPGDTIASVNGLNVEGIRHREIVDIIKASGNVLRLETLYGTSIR

pKd	Binder
4.32	SAAKVLTSMC [GHRHR, Q02643]
below the threshold	RKPKPSSSCC [RAB9A, P51151]

biological target: GRIP2_6, Q9C0E4; assay: holdup assay; design: key: below the threshold = too weak to quantify, mostly under pKd 3.1 to 4; conditions: plain residues with an end cap or a label only (N-terminal biotin on a linker: ado-ado)
Sequence (Q9C0E4 648-740): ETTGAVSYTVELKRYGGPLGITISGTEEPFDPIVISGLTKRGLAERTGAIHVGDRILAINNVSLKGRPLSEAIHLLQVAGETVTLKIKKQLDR

pKd	Binder
below the threshold	SAAKVLTSMC [GHRHR, Q02643]
below the threshold	RKPKPSSSCC [RAB9A, P51151]

biological target: IL16_1, Q14005; assay: holdup assay; design: key: below the threshold = too weak to quantify, mostly under pKd 3.1 to 4; conditions: plain residues with an end cap or a label only (N-terminal biotin on a linker: ado-ado)
Sequence (Q14005 210-306): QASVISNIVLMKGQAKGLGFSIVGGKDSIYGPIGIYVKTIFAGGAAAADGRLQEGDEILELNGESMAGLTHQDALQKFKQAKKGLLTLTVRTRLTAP

pKd	Binder
below the threshold	SAAKVLTSMC [GHRHR, Q02643]
below the threshold	RKPKPSSSCC [RAB9A, P51151]

biological target: IL16_4, Q14005; assay: holdup assay; design: key: below the threshold = too weak to quantify, mostly under pKd 3.1 to 4; conditions: plain residues with an end cap or a label only (N-terminal biotin on a linker: ado-ado)
Sequence (Q14005 1229-1329): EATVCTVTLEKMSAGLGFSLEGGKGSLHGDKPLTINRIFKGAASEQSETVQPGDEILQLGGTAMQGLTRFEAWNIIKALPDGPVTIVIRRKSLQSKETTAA

pKd	Binder
below the threshold	SAAKVLTSMC [GHRHR, Q02643]
below the threshold	RKPKPSSSCC [RAB9A, P51151]

biological target: Inadl_1, Q8NI35; assay: holdup assay; design: key: below the threshold = too weak to quantify, mostly under pKd 3.1 to 4; conditions: plain residues with an end cap or a label only (N-terminal biotin on a linker: ado-ado)
Sequence (Q8NI35 113-229): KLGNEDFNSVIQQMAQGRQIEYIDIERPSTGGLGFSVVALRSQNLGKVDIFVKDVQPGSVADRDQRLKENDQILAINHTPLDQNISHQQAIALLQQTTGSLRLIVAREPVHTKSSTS

pKd	Binder
below the threshold	SAAKVLTSMC [GHRHR, Q02643]
below the threshold	RKPKPSSSCC [RAB9A, P51151]

biological target: Inadl_3, Q8NI35; assay: holdup assay; design: key: below the threshold = too weak to quantify, mostly under pKd 3.1 to 4; conditions: plain residues with an end cap or a label only (N-terminal biotin on a linker: ado-ado)
Sequence (Q8NI35 359-469): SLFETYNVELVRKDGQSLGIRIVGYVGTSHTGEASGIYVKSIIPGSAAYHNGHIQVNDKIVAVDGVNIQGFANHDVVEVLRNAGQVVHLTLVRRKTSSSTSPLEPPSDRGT

pKd	Binder
below the threshold	SAAKVLTSMC [GHRHR, Q02643]
below the threshold	RKPKPSSSCC [RAB9A, P51151]

biological target: LAP2, Q96RT1; assay: holdup assay; design: key: below the threshold = too weak to quantify, mostly under pKd 3.1 to 4; conditions: plain residues with an end cap or a label only (N-terminal biotin on a linker: ado-ado)
Sequence (Q96RT1 other isoform, or with tags, fused parts or gaps): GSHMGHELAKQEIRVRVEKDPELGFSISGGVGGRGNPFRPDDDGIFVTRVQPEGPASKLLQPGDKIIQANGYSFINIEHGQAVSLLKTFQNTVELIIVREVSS

pKd	Binder
below the threshold	SAAKVLTSMC [GHRHR, Q02643]
below the threshold	RKPKPSSSCC [RAB9A, P51151]

biological target: LDB3, O75112; assay: holdup assay; design: key: below the threshold = too weak to quantify, mostly under pKd 3.1 to 4; conditions: plain residues with an end cap or a label only (N-terminal biotin on a linker: ado-ado)
Sequence (O75112 1-94): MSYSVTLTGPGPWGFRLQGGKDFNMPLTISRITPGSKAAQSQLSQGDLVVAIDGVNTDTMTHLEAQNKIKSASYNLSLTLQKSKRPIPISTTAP

pKd	Binder
below the threshold	SAAKVLTSMC [GHRHR, Q02643]
3.51	RKPKPSSSCC [RAB9A, P51151]

biological target: LIMK2, P53671; assay: holdup assay; design: key: below the threshold = too weak to quantify, mostly under pKd 3.1 to 4; conditions: plain residues with an end cap or a label only (N-terminal biotin on a linker: ado-ado)
Sequence (P53671 143-248): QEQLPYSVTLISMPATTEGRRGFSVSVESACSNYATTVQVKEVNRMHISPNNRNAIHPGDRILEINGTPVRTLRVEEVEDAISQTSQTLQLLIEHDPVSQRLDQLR

pKd	Binder
below the threshold	SAAKVLTSMC [GHRHR, Q02643]
below the threshold	RKPKPSSSCC [RAB9A, P51151]

biological target: T1, LRRC7, Q96NW7; assay: holdup assay; design: key: below the threshold = too weak to quantify, mostly under pKd 3.1 to 4; conditions: plain residues with an end cap or a label only (N-terminal biotin on a linker: ado-ado)

pKd	Binder
below the threshold	SAAKVLTSMC [GHRHR, Q02643]
below the threshold	RKPKPSSSCC [RAB9A, P51151]

biological target: MAST2, Q6P0Q8; assay: holdup assay; design: key: below the threshold = too weak to quantify, mostly under pKd 3.1 to 4; conditions: plain residues with an end cap or a label only (N-terminal biotin on a linker: ado-ado)
Sequence (Q6P0Q8 1099-1202): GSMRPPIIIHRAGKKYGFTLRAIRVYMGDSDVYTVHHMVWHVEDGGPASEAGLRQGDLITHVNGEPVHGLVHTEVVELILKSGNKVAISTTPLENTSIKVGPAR

pKd	Binder
4.15	SAAKVLTSMC [GHRHR, Q02643]
3.69	RKPKPSSSCC [RAB9A, P51151]

biological target: T2, MPP6, Q9NZW5; assay: holdup assay; design: key: below the threshold = too weak to quantify, mostly under pKd 3.1 to 4; conditions: plain residues with an end cap or a label only (N-terminal biotin on a linker: ado-ado)

pKd	Binder
below the threshold	SAAKVLTSMC [GHRHR, Q02643]
3.51	RKPKPSSSCC [RAB9A, P51151]

biological target: T3, NHERF3_1, Q5T2W1; assay: holdup assay; design: key: below the threshold = too weak to quantify, mostly under pKd 3.1 to 4; conditions: plain residues with an end cap or a label only (N-terminal biotin on a linker: ado-ado)

pKd	Binder
3.94	SAAKVLTSMC [GHRHR, Q02643]
3.61	RKPKPSSSCC [RAB9A, P51151]

biological target: T4, NHERF3_3, Q5T2W1; assay: holdup assay; design: key: below the threshold = too weak to quantify, mostly under pKd 3.1 to 4; conditions: plain residues with an end cap or a label only (N-terminal biotin on a linker: ado-ado)

pKd	Binder
below the threshold	SAAKVLTSMC [GHRHR, Q02643]
below the threshold	RKPKPSSSCC [RAB9A, P51151]

biological target: NHERF4_4, Q86UT5; assay: holdup assay; design: key: below the threshold = too weak to quantify, mostly under pKd 3.1 to 4; conditions: plain residues with an end cap or a label only (N-terminal biotin on a linker: ado-ado)
Sequence (Q86UT5 464-550): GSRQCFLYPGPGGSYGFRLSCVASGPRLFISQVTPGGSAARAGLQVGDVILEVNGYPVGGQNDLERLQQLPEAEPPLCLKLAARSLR

pKd	Binder
below the threshold	SAAKVLTSMC [GHRHR, Q02643]
below the threshold	RKPKPSSSCC [RAB9A, P51151]

biological target: T5, PARD3B_1, Q8TEW8; assay: holdup assay; design: key: below the threshold = too weak to quantify, mostly under pKd 3.1 to 4; conditions: plain residues with an end cap or a label only (N-terminal biotin on a linker: ado-ado)

pKd	Binder
below the threshold	SAAKVLTSMC [GHRHR, Q02643]
below the threshold	RKPKPSSSCC [RAB9A, P51151]

biological target: PARD3_3, Q8TEW0; assay: holdup assay; design: key: below the threshold = too weak to quantify, mostly under pKd 3.1 to 4; conditions: plain residues with an end cap or a label only (N-terminal biotin on a linker: ado-ado)
Sequence (Q8TEW0 582-685): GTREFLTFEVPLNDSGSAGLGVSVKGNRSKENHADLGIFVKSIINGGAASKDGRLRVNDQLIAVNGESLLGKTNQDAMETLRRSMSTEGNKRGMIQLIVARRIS

pKd	Binder
below the threshold	SAAKVLTSMC [GHRHR, Q02643]
below the threshold	RKPKPSSSCC [RAB9A, P51151]

biological target: PICK1, Q9NRD5; assay: holdup assay; design: key: below the threshold = too weak to quantify, mostly under pKd 3.1 to 4; conditions: plain residues with an end cap or a label only (N-terminal biotin on a linker: ado-ado)
Sequence (Q9NRD5 17-115): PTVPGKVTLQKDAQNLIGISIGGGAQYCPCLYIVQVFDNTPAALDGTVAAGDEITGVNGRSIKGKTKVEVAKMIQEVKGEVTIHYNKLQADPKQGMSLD

pKd	Binder
below the threshold	SAAKVLTSMC [GHRHR, Q02643]
below the threshold	RKPKPSSSCC [RAB9A, P51151]

biological target: PTPN3, P26045; assay: holdup assay; design: key: below the threshold = too weak to quantify, mostly under pKd 3.1 to 4; conditions: plain residues with an end cap or a label only (N-terminal biotin on a linker: ado-ado)
Sequence (P26045 505-587): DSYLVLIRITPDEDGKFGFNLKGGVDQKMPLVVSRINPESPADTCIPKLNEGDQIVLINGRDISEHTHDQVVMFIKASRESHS

pKd	Binder
3.71	SAAKVLTSMC [GHRHR, Q02643]
3.83	RKPKPSSSCC [RAB9A, P51151]

biological target: SCRIB_1, Q14160; assay: holdup assay; design: key: below the threshold = too weak to quantify, mostly under pKd 3.1 to 4; conditions: plain residues with an end cap or a label only (N-terminal biotin on a linker: ado-ado)
Sequence (Q14160 718-814): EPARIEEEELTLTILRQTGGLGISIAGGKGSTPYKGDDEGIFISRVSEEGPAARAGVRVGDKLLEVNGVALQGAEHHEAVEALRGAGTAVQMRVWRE

pKd	Binder
4.58	SAAKVLTSMC [GHRHR, Q02643]
below the threshold	RKPKPSSSCC [RAB9A, P51151]

biological target: SCRIB_3, Q14160; assay: holdup assay; design: key: below the threshold = too weak to quantify, mostly under pKd 3.1 to 4; conditions: plain residues with an end cap or a label only (N-terminal biotin on a linker: ado-ado)
Sequence (Q14160 999-1103): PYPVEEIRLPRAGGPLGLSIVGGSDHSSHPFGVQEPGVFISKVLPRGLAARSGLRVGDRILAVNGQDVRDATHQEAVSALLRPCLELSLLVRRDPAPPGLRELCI

pKd	Binder
3.61	SAAKVLTSMC [GHRHR, Q02643]
below the threshold	RKPKPSSSCC [RAB9A, P51151]

biological target: T6, SNTG1, Q9NSN8; assay: holdup assay; design: key: below the threshold = too weak to quantify, mostly under pKd 3.1 to 4; conditions: plain residues with an end cap or a label only (N-terminal biotin on a linker: ado-ado)

pKd	Binder
below the threshold	SAAKVLTSMC [GHRHR, Q02643]
below the threshold	RKPKPSSSCC [RAB9A, P51151]

biological target: T7, SNTG2, Q9NY99; assay: holdup assay; design: key: below the threshold = too weak to quantify, mostly under pKd 3.1 to 4; conditions: plain residues with an end cap or a label only (N-terminal biotin on a linker: ado-ado)

pKd	Binder
below the threshold	SAAKVLTSMC [GHRHR, Q02643]
below the threshold	RKPKPSSSCC [RAB9A, P51151]

biological target: T8, TIAM2, Q8IVF5; assay: holdup assay; design: key: below the threshold = too weak to quantify, mostly under pKd 3.1 to 4; conditions: plain residues with an end cap or a label only (N-terminal biotin on a linker: ado-ado)

pKd	Binder
below the threshold	SAAKVLTSMC [GHRHR, Q02643]
3.8	RKPKPSSSCC [RAB9A, P51151]

biological target: TJP1_3, Q07157; assay: holdup assay; design: key: below the threshold = too weak to quantify, mostly under pKd 3.1 to 4; conditions: plain residues with an end cap or a label only (N-terminal biotin on a linker: ado-ado)
Sequence (Q07157 416-512): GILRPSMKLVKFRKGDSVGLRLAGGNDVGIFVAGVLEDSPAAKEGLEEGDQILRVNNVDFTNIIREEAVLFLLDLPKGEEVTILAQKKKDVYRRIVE

pKd	Binder
below the threshold	SAAKVLTSMC [GHRHR, Q02643]
below the threshold	RKPKPSSSCC [RAB9A, P51151]
